Source: patent CN115386006A (SHANGHAI XIANGYAO BIOLOGICAL TECH CO LTD, dated 2022)

Target: T1, 人GPRC5D (human G protein-coupled receptor family C group 5 member D) (human, UniProt Q9NZD1 1-345)
T1 construct: also called huGPRC5D; hGPRC5D
Assay: flow cytometry, scFv supernatant on HEK293-GPRC5D-ZSGreen1 and H929 cells, APC anti-6xHis

T1 sequence (Q9NZD1 whole entry): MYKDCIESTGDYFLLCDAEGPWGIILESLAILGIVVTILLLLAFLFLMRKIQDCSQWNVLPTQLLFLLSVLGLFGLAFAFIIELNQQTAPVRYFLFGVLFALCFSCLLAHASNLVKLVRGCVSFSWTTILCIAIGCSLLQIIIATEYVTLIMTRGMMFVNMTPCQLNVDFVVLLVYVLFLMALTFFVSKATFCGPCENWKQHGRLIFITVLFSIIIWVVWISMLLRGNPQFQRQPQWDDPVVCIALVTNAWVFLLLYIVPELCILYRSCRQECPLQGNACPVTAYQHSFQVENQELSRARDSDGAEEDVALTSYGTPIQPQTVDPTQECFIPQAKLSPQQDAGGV

binding result	Binder
binds	HTS0371 scFv (scFv, V domains shown, Tested as one scFv chain in E. coli supernatant, found with an anti-6xHis antibody) VH: EVQLQQSGPELVKPGASVKMSCKASGYTFTSYVMHWVKQKPGQGLEWIGYINPYNDGTKYNEKFKGKATLTSDKSSSTAYMELSSLTSEDSAVYYCARGGKLNWYFDVWGAGTTVTVSS VL: NIVMTQSPASLAVSLGQRATISCRASESVDSYGNSFMHWYQQKPGQPPKLLIYLASNLESGVPARFSGSGSRTDFTLTIDPVEADDAATYYCQQNNEDPYTFGGGTKLEIN
binds	HTS0372 scFv (scFv, V domains shown, Tested as one scFv chain in E. coli supernatant, found with an anti-6xHis antibody) VH: EVQLQQSGPELVKPGASMKISCKASGYSFTGYTMNWVKQSHGKNLEWIGLINPYNGRTIYNQKFKGKATLTVDKSSSTAYMELLSLTSEDSAVYYCARVALRYAMDYWGQGTSLTVSS VL: DIVMTQSQKFMSTSVGDRVSVTCKASQNVGTNVAWYQQKPGQSPKALIYSASYRYSGVPDRFTGSGSGTDFTLTISNVQSEDLAEYFCQQYNSYPLTFGAGTKLEIN
binds	HTS0375 scFv (scFv, V domains shown, Tested as one scFv chain in E. coli supernatant, found with an anti-6xHis antibody) VH: EVQLQQSGPELVKPGASMKISCKASGYSFTGYTMNWVKQSHGKNLEWIGLINPYNGRTIYNQKFKGKATLTVDKSSSTAYMELLSLTSEDSAVYYCARVALRYAMDYWGQGTSLTVSS VL: SIVMTQSQKFMSTSVGDKVSVTCKASQSVYTNVAWYQQKPGQSPKSLIYSASYRYNGVPDRFTGSGSGTDFTLTISNVQSEDLAEYFCQQYNSYPVTFGAGTKLEIK
binds	HTS0373 scFv (scFv, V domains shown, Tested as one scFv chain in E. coli supernatant, found with an anti-6xHis antibody) VH: EVQLQQSGPELVKPGASMKISCKASGYSFAGYTVNWVKQSHGKNLEWIGLINPYNGGTTYTPKFKDKATLTVDKSSSTAYMELLSLTSEDSAVYYCTRGGFYRYDFDFWGQGTSVTVSS VL: DILMTQSPSSLSASLGERVSLTCRASQEISGYLSWLQQKPDGTIKRLIYAASTLDSGVPKRFSGSRSGSDYSLTISSLESEDFADYYCLQYASYPFTFGSGTKLEMK
binds	HTS0374 scFv (scFv, V domains shown, Tested as one scFv chain in E. coli supernatant, found with an anti-6xHis antibody) VH: QVQLQQSGPELVKPGTSMKISCKASGYSFTGYTVNWVKQSHGKNLEWIGLINPYNGGTTYTPKFKDKATLTVDKSSSTAYMELLSLTSEDSAVYYCTRGGFYRYDFDFWGQGTSLTVSS VL: EIQMTQSPSSLSASLGERVSLTCRASQDIGSSLNWLQQEPDGTIKRLIYATSSLDSGVPKRFSGSRSGSDYSLTISSLESEDFVDYYCLQYASSPYTFGGGTKLEMK
binds	HTS0370 scFv (scFv, V domains shown, Tested as one scFv chain in E. coli supernatant, found with an anti-6xHis antibody) VH: EVQLQQSGAELMKPGASVKISCKATGYTFSSYWMEWVKQRPGLGLEWIGQILPGSSYTNYNDKFKGKATFTADTSSNTAYMQLSSLTSEDSAVYYCAKKGGPIYYGNRPFYYAMDYWGQGTSVTVSS VL: NIMMTQTPKFLLVSAGDRVTITCKASQSVSNDVAWYQQKPGQSPKLQIYYASNRYTGVPDRFTGSGYGTDFTFTISTVQAEDLAVYFCQQDYSSPLTFGAGTKLEIK
